One molecule from paper PMC6686036, “Structural Basis for the Differential Regulatory Roles of the PDZ Domain in C-Terminal Processing Proteases” (mBio, 2019) can be followed below.

What all share (assay): crystal structure; purified Prc mutant and sNlpI mixed in a 1:2 molar ratio, complex isolated on Superdex 200 (25 mM Tris-HCl pH 8.0, 150 mM NaCl); hanging-drop vapor diffusion at 22°C (16°C for sNlpI–Prc-ΔPDZ)
Data set [1] concerns the molecule itself.
The target in data set [2] is T1, Prc-S452I/L252Y (E. coli, UniProt P23865 23-682, S452I | L252Y).
T1 construct: also called Prc S452I/L252Y double mutant; unliganded resting Prc; source: E. coli ΔPrc cells (strain MR812), purified (Ni-NTA, Mono Q, Superdex 200 with sNlpI)
T1 sequence (looked up): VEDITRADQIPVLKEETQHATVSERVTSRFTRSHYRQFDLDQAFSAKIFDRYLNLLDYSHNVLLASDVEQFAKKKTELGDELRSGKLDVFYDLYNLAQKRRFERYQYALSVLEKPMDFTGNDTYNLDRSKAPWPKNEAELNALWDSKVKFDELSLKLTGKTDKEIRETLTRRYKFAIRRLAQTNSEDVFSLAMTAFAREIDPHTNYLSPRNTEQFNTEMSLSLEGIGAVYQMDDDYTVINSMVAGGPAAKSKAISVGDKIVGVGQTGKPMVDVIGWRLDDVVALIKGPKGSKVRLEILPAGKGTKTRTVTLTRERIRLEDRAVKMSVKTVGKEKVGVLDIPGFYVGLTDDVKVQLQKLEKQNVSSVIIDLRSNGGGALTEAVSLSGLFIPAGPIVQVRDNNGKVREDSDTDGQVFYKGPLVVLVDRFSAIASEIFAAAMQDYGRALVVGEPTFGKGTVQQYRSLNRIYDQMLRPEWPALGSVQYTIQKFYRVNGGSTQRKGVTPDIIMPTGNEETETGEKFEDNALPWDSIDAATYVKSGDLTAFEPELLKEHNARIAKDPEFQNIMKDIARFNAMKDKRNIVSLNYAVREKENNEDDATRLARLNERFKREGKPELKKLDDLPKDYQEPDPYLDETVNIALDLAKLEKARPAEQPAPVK
Particulars: both partners purified.

The target of data set [3] is T2, Prc-ΔPDZ (Prc with the deletion of residues 247 to 339) (E. coli, UniProt P23865 23-682, Δ247-339).
T2 construct: Prc (Tsp), tail-specific C-terminal processing protease of E. coli, with the PDZ domain (residues 247 to 339) deleted; cloned into pTrc99A; also called Prc-PDZ; source: E. coli ΔPrc cells (strain MR812), purified (Ni-NTA, Mono Q, Superdex 200 with sNlpI)
T2 sequence (looked up): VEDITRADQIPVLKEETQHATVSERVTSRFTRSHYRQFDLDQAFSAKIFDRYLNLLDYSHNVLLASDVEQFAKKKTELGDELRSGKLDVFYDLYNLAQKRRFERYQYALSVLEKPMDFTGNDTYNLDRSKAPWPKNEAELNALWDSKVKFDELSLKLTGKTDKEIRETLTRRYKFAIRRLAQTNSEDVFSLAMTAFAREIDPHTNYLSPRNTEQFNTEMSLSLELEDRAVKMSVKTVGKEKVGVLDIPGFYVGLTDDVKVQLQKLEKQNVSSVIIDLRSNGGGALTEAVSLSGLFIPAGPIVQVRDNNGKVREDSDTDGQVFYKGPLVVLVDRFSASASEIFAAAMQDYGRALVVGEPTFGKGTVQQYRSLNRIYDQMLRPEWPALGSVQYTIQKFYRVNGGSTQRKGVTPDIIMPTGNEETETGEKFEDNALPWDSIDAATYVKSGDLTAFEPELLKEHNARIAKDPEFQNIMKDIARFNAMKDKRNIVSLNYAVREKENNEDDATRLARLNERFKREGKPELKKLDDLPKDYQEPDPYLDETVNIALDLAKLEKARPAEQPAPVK
The conditions noted are these: both partners purified.

Data set [4] addresses T3, Prc-L245A/L340G (E. coli, UniProt P23865 23-682, L245A | L340G).
T3 construct: also called Prc L245A/L340G double mutant; source: E. coli ΔPrc cells (strain MR812), purified (Ni-NTA, Mono Q, Superdex 200 with sNlpI)
T3 sequence (looked up): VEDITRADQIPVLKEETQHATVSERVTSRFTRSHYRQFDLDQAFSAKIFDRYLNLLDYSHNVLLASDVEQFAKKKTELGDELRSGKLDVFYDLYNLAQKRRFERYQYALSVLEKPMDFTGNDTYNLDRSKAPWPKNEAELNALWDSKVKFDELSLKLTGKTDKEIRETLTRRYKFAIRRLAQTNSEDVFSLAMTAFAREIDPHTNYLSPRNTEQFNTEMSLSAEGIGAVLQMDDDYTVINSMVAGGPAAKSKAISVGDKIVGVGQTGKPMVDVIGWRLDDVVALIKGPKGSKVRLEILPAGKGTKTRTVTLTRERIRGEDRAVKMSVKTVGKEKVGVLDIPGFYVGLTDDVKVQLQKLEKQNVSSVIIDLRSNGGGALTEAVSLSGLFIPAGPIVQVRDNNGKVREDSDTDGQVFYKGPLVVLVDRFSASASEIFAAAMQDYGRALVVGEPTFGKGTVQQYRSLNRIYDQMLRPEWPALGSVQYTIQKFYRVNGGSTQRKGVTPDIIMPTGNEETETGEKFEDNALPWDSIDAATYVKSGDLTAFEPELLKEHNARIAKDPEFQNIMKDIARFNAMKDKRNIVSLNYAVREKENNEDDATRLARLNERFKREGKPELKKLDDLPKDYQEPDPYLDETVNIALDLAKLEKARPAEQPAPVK
Particulars: both partners purified.

B1: soluble form of NlpI (sNlpI) (natural protein, E. coli, UniProt P0AFB1 19-294, looked up)
chain: CSNTSWRKSEVLAVPLQPTLQQEVILARMEQILASRALTDDERAQLLYERGVLYDSLGLRALARNDFSQALAIRPDMPEVFNYLGIYLTQAGNFDAAYEAFDSVLELDPTYNYAHLNRGIALYYGGRDKLAQDDLLAFYQDDPNDPFRSLWLYLAEQKLDEKQAKEVLKQHFEKSDKEQWGWNIVEFYLGNISEQTLMERLKADATDNTSLAEHLSETNFYLGKYYLSLGDLDSATALFKLAVANNVHNFVEHRYALLELSLLGQDQDDLAESDQQ
notes: NlpI of E. coli without its lipoprotein signal peptide (expressed without the lipid anchor); a TEV protease cleavage site follows the N-terminal His tag; source: E. coli BL21(λDE3), purified (Ni-NTA, Mono Q, Superdex 200 with Prc)
For the molecule B1, the “stoichiometry N” value in data set [1] amounted to 2. In addition, the binding result in data set [2], in data set [3] and in data set [4] was “binds” in each case.

As a reminder, the stoichiometry N is a count of units in the complex or per binding partner.
